Key:
[1] = target: recombinant biotinylated human neonatal Fc receptor (FcRn) (human) (UniProt P55899); assay: AlphaLISA competition at pH 6; test molecule titrated against human IgG acceptor beads for biotinylated human FcRn
[2] = target: recombinant biotinylated human Fc gamma receptor IIa (FcγRIIa/CD32a 167H) (human) (UniProt P12318); assay: AlphaLISA competition; test molecule titrated against human IgG Fc acceptor beads for biotinylated FcγRIIa
[3] = target: recombinant biotinylated human Fc gamma receptor IIIa (FcγRIIIa/CD16) (human) (UniProt P08637); assay: AlphaLISA competition; test molecule titrated against human IgG Fc acceptor beads for biotinylated FcγRIIIa
Sequence of recombinant biotinylated human Fc gamma receptor IIIa (FcγRIIIa/CD16) (human) (P08637 17-208 limits assumed): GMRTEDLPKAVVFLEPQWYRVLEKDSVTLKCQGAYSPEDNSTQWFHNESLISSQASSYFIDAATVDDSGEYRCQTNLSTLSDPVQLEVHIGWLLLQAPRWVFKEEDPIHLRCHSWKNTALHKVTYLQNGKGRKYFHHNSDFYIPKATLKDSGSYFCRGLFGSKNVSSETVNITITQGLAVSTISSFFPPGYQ

[4] = target: recombinant biotinylated human Fc gamma receptor I (FcγRI/CD64) (human) (UniProt P12314); assay: AlphaLISA competition; test molecule titrated against human IgG Fc acceptor beads for biotinylated FcγRI
Sequence of recombinant biotinylated human Fc gamma receptor I (FcγRI/CD64) (human) (P12314 16-288 limits assumed): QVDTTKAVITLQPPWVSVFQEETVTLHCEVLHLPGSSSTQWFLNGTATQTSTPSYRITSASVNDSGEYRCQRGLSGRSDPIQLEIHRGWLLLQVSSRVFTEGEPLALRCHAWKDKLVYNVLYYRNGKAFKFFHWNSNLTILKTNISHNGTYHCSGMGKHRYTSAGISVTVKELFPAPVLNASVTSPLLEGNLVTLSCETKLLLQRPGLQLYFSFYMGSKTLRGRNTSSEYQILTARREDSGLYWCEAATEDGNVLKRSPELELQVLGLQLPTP

[5] = target: Fc gamma receptor IIb (FcgRIIb, CD32b) (human) (UniProt P31994); assay: AlphaLISA competition or analogous assay for FcγRIIb (not described)
Sequence of Fc gamma receptor IIb (FcgRIIb, CD32b) (human) (P31994 46-217 limits assumed): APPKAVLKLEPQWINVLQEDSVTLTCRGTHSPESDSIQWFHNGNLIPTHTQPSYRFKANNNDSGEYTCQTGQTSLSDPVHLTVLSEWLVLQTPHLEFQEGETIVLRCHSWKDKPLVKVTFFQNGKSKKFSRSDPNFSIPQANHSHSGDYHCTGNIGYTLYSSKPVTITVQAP

Sequence of recombinant biotinylated human Fc gamma receptor IIa (FcγRIIa/CD32a 167H) (human) (P12318 36-218 limits assumed): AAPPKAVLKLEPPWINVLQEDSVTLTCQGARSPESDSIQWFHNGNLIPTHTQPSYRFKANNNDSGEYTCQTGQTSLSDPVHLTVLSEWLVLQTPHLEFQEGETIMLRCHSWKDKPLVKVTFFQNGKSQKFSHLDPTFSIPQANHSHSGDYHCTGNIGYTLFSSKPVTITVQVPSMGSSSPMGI

| Kd [1] | Kd [2] | Kd [3] | Kd [4] | Kd [5] | Binder |
| --- | --- | --- | --- | --- | --- |
| 25.3 nM | 1140 nM | 481 nM | 3.81 nM | 4710 nM | CMP-016 (LZM-009 conjugated to CMP-003, DAR 1, K248) (antibody, not fully specified; Nle at 23, 39, 46 and Hse at 41, 71, 104 (as in SEQ ID NO: 3); ~0.5 kDa PEG on Y45; 0.5 kDa PEG on F42Y whose azide end is joined to the DBCO linker of the antibody; the heavy chain carries a chemical linker to CMP-003 on Lys K248 (Eu numbering) of the Fc; DAR 1) VH: QVQLVQSGAEVKKPGASVKVSCKASGYTFTSYYMYWVRQAPGQGLEWMGGVNPSNGGTNFNEKFKSRVTITADKSTSTAYMELSSLRSEDTAVYYCARRDYRYDMGFDYWGQGTTVTVSS VL: EIVLTQSPATLSLSPGERATISCRASKGVSTSGYSYLHWYQQKPGQAPRLLIYLASYLESGVPARFSGSGSGTDFTLTISSLEPEDFATYYCQHSRELPLTFGTGTKVEIK APTSSSTKKTQLQLEHLLLDLQXILNGINNYKNPKLTRXLXYKFYXPKKATELKHLQCLEEELKPLEEVLXLAQSKNFHLRPRDLISNINVIVLELKGSETTFXCEYADETATIVEFLNRWITFSQSIISTLT |
| 27.1 nM | 1870 nM | 5410 nM | 12 nM | 3340 nM | CMP-028 (LZM-009 conjugated to CMP-003, DAR 1.9, K288) (antibody, not fully specified; Nle at 23, 39, 46 and Hse at 41, 71, 104 (as in SEQ ID NO: 3); ~0.5 kDa PEG on Y45; 0.5 kDa PEG on F42Y whose azide end is joined to the DBCO linker of the antibody; the heavy chain carries a chemical linker to CMP-003 on Lys K288 (Eu numbering) of the Fc; DAR 1.9) VH: QVQLVQSGAEVKKPGASVKVSCKASGYTFTSYYMYWVRQAPGQGLEWMGGVNPSNGGTNFNEKFKSRVTITADKSTSTAYMELSSLRSEDTAVYYCARRDYRYDMGFDYWGQGTTVTVSS VL: EIVLTQSPATLSLSPGERATISCRASKGVSTSGYSYLHWYQQKPGQAPRLLIYLASYLESGVPARFSGSGSGTDFTLTISSLEPEDFATYYCQHSRELPLTFGTGTKVEIK APTSSSTKKTQLQLEHLLLDLQXILNGINNYKNPKLTRXLXYKFYXPKKATELKHLQCLEEELKPLEEVLXLAQSKNFHLRPRDLISNINVIVLELKGSETTFXCEYADETATIVEFLNRWITFSQSIISTLT |
| 10.7 nM | 1180 nM | 272 nM | 2.3 nM | 6680 nM | CMP-102 (LZM-009 conjugated to CMP-003, DAR 1, K288) (antibody, not fully specified; Nle at 23, 39, 46 and Hse at 41, 71, 104 (as in SEQ ID NO: 3); ~0.5 kDa PEG on Y45; 0.5 kDa PEG on F42Y whose azide end is joined to the DBCO linker of the antibody; the heavy chain carries a chemical linker to CMP-003 on Lys K288 (Eu numbering) of the Fc; DAR 1) VH: QVQLVQSGAEVKKPGASVKVSCKASGYTFTSYYMYWVRQAPGQGLEWMGGVNPSNGGTNFNEKFKSRVTITADKSTSTAYMELSSLRSEDTAVYYCARRDYRYDMGFDYWGQGTTVTVSS VL: EIVLTQSPATLSLSPGERATISCRASKGVSTSGYSYLHWYQQKPGQAPRLLIYLASYLESGVPARFSGSGSGTDFTLTISSLEPEDFATYYCQHSRELPLTFGTGTKVEIK APTSSSTKKTQLQLEHLLLDLQXILNGINNYKNPKLTRXLXYKFYXPKKATELKHLQCLEEELKPLEEVLXLAQSKNFHLRPRDLISNINVIVLELKGSETTFXCEYADETATIVEFLNRWITFSQSIISTLT |

Reference: patent US20230201364A1
